Measured values as given in article PMC6767918 (Science (New York, N.Y.), 2019).

Target: T1, SidJ^[change] (SidJ 59–851) (L. pneumophila, UniProt Q5ZTK6 59-851)
T1 sequence: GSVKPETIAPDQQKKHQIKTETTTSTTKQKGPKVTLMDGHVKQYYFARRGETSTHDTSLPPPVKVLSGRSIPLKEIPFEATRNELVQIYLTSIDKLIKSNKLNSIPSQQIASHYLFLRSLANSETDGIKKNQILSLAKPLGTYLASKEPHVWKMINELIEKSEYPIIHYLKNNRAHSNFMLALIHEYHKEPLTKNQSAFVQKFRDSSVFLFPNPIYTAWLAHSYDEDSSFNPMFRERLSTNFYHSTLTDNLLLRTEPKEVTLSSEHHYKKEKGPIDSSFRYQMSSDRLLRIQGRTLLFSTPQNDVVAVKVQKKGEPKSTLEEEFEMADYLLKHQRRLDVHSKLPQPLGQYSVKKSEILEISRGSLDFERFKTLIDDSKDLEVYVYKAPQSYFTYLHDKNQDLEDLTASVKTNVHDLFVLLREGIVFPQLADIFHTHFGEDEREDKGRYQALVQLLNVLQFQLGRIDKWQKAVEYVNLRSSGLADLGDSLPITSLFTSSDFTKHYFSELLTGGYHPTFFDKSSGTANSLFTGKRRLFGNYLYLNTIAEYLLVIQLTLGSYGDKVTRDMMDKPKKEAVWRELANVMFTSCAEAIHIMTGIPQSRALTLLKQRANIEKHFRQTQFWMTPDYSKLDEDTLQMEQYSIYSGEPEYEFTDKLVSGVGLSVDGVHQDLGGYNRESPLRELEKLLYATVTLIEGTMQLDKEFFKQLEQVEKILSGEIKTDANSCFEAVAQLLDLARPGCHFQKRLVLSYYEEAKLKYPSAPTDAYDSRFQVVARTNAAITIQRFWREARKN
Assay: crystal structure

B1: yeast CaM (yCaM) (natural protein)
chain: not shown
B1: binds.
